Experimental data from the supplement of paper PMC9170038.

Tested on: MS2 coat protein
Test: apparent KD of MS2 coat protein; designed switch direction (-1 OFF switch, 1 ON switch): -1; higher = weaker reporter binding
Outline: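 The buffer was Tris-HCl pH 7.5 with KCl, MgCl2, BSA, DTT, tRNA and Tween-20. In it, SNAP-549-labelled MS2 coat protein was titrated in doubling steps from 0.7 or 1.5 nM to 3 µM over chip-bound RNA switches transcribed by stalled E. coli RNA polymerase on Illumina chips. Apparent KD is the per-design median over clusters of curve fits to normalised fluorescence.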

[1] = input ligand: microRNA oligo, concentration not stated
[2] = Eterna round: R95, input ligand: microRNA oligo, concentration not stated
[3] = Eterna round: R95, input ligand: FMN 200 uM
[4] = Eterna round: R95, input ligand: none

## CUCAUGUGAGGAUAUGUGCUGAUCUGUACUGUGAUUAGAGAACAGAAGGUACAUGAGGAUCACCCAUGUACACG [Eternabot (L2) Solution 46] (Eterna round: R97, puzzle: Exclusion 4)
Input ligand: FMN 200 uM
  apparent KD of MS2 coat protein: 354 nM
Input ligand: none
  apparent KD of MS2 coat protein: 14.7 nM

## CUCAUUAGUCAGGAUAUCGUGUGGGUAAUUGUACGAGAAGGGACGACAUGAGGAUCACCCAUGUGGUCUUUGGG [JR_Ex6_Sub085] (Eterna round: R97, puzzle: Exclusion 6)
Input ligand: FMN 200 uM
  apparent KD of MS2 coat protein: 70.6 nM
Input ligand: none
  apparent KD of MS2 coat protein: 165 nM

## CUCCGGCGUGUAGGAUAUGGAUCCGAUUAGGAUCCAGAAGGACAUGAGGAUCACCCAUGUACAUGUAAACAGUCGUCACCGGGC [salish99_ExNG1_r04_206] (Eterna round: R96, puzzle: Exclusion NG 1)
Input ligand: FMN 200 uM
  apparent KD of MS2 coat protein: 75.9 nM
[1]
  apparent KD of MS2 coat protein: 14 nM
Input ligand: none
  apparent KD of MS2 coat protein: 18.1 nM

## CUCCUACAUGAGGAUCACCCAUGUCAGGAUAUCUCAGUAGCACCUAAAGGUGCUACCCAGAGAAGGGACGUGCA [Enororce] (puzzle: Exclusion 1)
[2]
  apparent KD of MS2 coat protein: 11.1 nM

## CUCGCUGUGGUUAGGAUAUGUGGGUUAGCAGGCGCAUAGAAGGAACAUGAGGAUCACCCAUGUGGGUUGGUGCG [Eternabot (L2) Solution 88] (Eterna round: R97, puzzle: Brourd's mod of Exclusion 4)
Input ligand: FMN 200 uM
  apparent KD of MS2 coat protein: 39.4 nM
Input ligand: none
  apparent KD of MS2 coat protein: 62.7 nM

## CUCGUGCGGCUUUGCUGUGCGGGUACAUGAGGAUCACCCAUGUAGGAUAUGGUGCGCUUUGCGUGCCAGAAGGGCGUGCGUUGG [salish99_ExNG3_r04_011] (Eterna round: R96, puzzle: Exclusion NG 3)
Input ligand: FMN 200 uM
  apparent KD of MS2 coat protein: 36.6 nM
[1]
  apparent KD of MS2 coat protein: 27.1 nM
Input ligand: none
  apparent KD of MS2 coat protein: 27.3 nM

## CUCGUGUGAGGAUAUCUAUUCCACGGACGGGAGUCUUGAAGAGAGAAGGCACAUGAGGAUCACCCAUGUAAUAA [Latequ] (puzzle: Exclusion 4)
[2]
  apparent KD of MS2 coat protein: 107 nM

## CUCUGUGCAAAGGAUAUGUGAACAGGUCUAAUAACAGAAGGUUGCACUUGAGGAUCACCCAAGUUAAAGGGACC [Ortebi] (Eterna round: R97, puzzle: Exclusion 6)
Input ligand: FMN 200 uM
  apparent KD of MS2 coat protein: 517 nM
Input ligand: none
  apparent KD of MS2 coat protein: 462 nM

## CUCUUGUCAGGAUAUCUUACAUAACAAUCGUAGUUACAAUUGGAGAAGGGACAUGAGGAUCACCCAUGUUAGCG [tap-tap-tappy34] (Eterna round: R97, puzzle: Exclusion 4)
Input ligand: FMN 200 uM
  apparent KD of MS2 coat protein: 337 nM
Input ligand: none
  apparent KD of MS2 coat protein: 149 nM

## CUCUUGUGAGGAUAUCGAAGAAAAGAAAAGAAAGAAAAGAACGAGAAGGCACAUGAGGAUCACCCAUGUAAGAA [EteRNA is fun!] (Eterna round: R96, puzzle: Exclusion 4)
Input ligand: FMN 200 uM
  apparent KD of MS2 coat protein: 127 nM
[1]
  apparent KD of MS2 coat protein: 30.4 nM
Input ligand: none
  apparent KD of MS2 coat protein: 39.4 nM

## CUGAACCCGGUAGGAUAUAUUGUGGGCGGGCGUGGAACGACAUGAGGAUCACCCAUGUAAUUGAGGUAGAAGGGCCGAGAGAUU [Excl-NG2-LRO15] (Eterna round: R96, puzzle: Exclusion NG 2)
Input ligand: FMN 200 uM
  apparent KD of MS2 coat protein: 37.9 nM
[1]
  apparent KD of MS2 coat protein: 23 nM
Input ligand: none
  apparent KD of MS2 coat protein: 46.4 nM

## CUGAAUAGAGGAUAUUGUACUGCUGACAUGAGGAUCACCCAUGUAUGUUAACUCGGCCGUCGAGAAGGCUAACAAA [BotMod 13 - Jieux - Exclusion 5] (Eterna round: R97, puzzle: Exclusion 5)
Input ligand: FMN 200 uM
  apparent KD of MS2 coat protein: 16.9 nM
Input ligand: none
  apparent KD of MS2 coat protein: 41.2 nM

## CUGAGCAGACGGAAAUCCAACAUGAGGAUCACCCAUGUCUCAAAAGCUUUUUGCUCGUCUUAUCUUCCUCUGCUCUC [Cecelein] (puzzle: Sensor v3, turn-off variant 1)
[3]
  apparent KD of MS2 coat protein: 12.9 nM
[2]
  apparent KD of MS2 coat protein: 16.8 nM
[4]
  apparent KD of MS2 coat protein: 11.8 nM

## CUGAGCAGACGGAGAUCCAACAUGAGGAUCACCCAUGUCUCAAAAGCUUUCUGCUCGUCUUAUCCUCCUCUGUUCUC [Engeonrati] (puzzle: Sensor v3, turn-off variant 1)
[3]
  apparent KD of MS2 coat protein: 129 nM
[2]
  apparent KD of MS2 coat protein: 205 nM
[4]
  apparent KD of MS2 coat protein: 151 nM

## CUGAGCAGACGGAGAUCCAACAUGAGGAUCACCCAUGUCUCAAAAGCUUUUUGCUCGUCUUAUCCUCCUCUGUUCAC [Esquitian 1] (Eterna round: R97, puzzle: Sensor, turn-off variant 1)
Input ligand: FMN 200 uM
  apparent KD of MS2 coat protein: 26.4 nM
Input ligand: none
  apparent KD of MS2 coat protein: 26 nM

## CUGAGGUAGCGGUCCUAUGACAUGAGGAUCACCCAUGUACCUUGCUACAAGCUUUUUGCUCGUCUUAUGAUUCUCGG [JL Atriat mod 8] (Eterna round: R96, puzzle: Sensor v3, turn-off variant 1)
Input ligand: FMN 200 uM
  apparent KD of MS2 coat protein: 81.3 nM
[1]
  apparent KD of MS2 coat protein: 154 nM
Input ligand: none
  apparent KD of MS2 coat protein: 82.7 nM

## CUGAGGUAGCGGUCCUAUGACAUGAGGAUCACCCAUGUACCUUGCUACAAGCUUUUUGCUCGUCUUAUGAUUCUCGG [JL Atriat mod 8] (puzzle: Sensor v3, turn-off variant 1)
[3]
  apparent KD of MS2 coat protein: 58.1 nM
[2]
  apparent KD of MS2 coat protein: 123 nM
[4]
  apparent KD of MS2 coat protein: 70.2 nM

## CUGAUGUCAGGAUAUCGGUGGCUCACUUGUGUGUGCCAGUUCGAGAAGGGACAUGAGGAUCACCCAUGUUUUUA [Exclusion 4 (Mod2 of #36 by Marzena11)] (Eterna round: R97, puzzle: Exclusion 4)
Input ligand: FMN 200 uM
  apparent KD of MS2 coat protein: 486 nM
Input ligand: none
  apparent KD of MS2 coat protein: 75.2 nM

## CUGAUGUGAGGAUAUGUGAUCUGCCUUCUAUAUAGAUGAUUACAGAAGGCACAUGAGGAUCACCCAUGUAGAUC [Ex4 - 3 - 25] (puzzle: Exclusion 4)
[2]
  apparent KD of MS2 coat protein: 51.8 nM

## CUGAUGUUAGGAUAUCAGGCGCCCGCCACUAGCAGGGCGCAUGAGAAGGGACAUGAGGAUCACCCAUGUAGUAA [Anbionxe] (puzzle: Exclusion 4)
[2]
  apparent KD of MS2 coat protein: 27.3 nM

## CUGAUUCUAGUAAGGAUAUCGGCGUGCACAGCAGCCGAGAAGGUACAUGAGGAUCACCCAUGUUGCUUCAACUU [Eternabot (Original) Solution 43] (Eterna round: R97, puzzle: Brourd's mod of Exclusion 4)
Input ligand: FMN 200 uM
  apparent KD of MS2 coat protein: 69.5 nM
Input ligand: none
  apparent KD of MS2 coat protein: 31.2 nM

## CUGCUCCGUGUAGGAUAUCGCCGCACCACCCGGCGAGAAGGACAUGAGGAUCACCCAUGUAUGUUAUUAUCACGUGUGGCGCGC [Design 40] (Eterna round: R96, puzzle: Exclusion NG 1)
Input ligand: FMN 200 uM
  apparent KD of MS2 coat protein: 17.6 nM
[1]
  apparent KD of MS2 coat protein: 11.7 nM
Input ligand: none
  apparent KD of MS2 coat protein: 15 nM

## CUGCUCCGUGUAGGAUAUGCAUACCACCACUAUGCAGAAGGACAUGAGGAUCACCCAUGUAUGUUAUUAUCACGUGAAGCGUCC [Design 19] (Eterna round: R96, puzzle: Exclusion NG 1)
Input ligand: FMN 200 uM
  apparent KD of MS2 coat protein: 27.8 nM
[1]
  apparent KD of MS2 coat protein: 18.1 nM
Input ligand: none
  apparent KD of MS2 coat protein: 23.7 nM

## CUGCUCCGUGUAGGAUAUGCAUACUCCCACUAUGCAGAAGGACAUGAGGAUCACCCAUGUAUGUUAUUAUCACGUGUAGCGUCC [Design 17] (Eterna round: R96, puzzle: Exclusion NG 1)
Input ligand: FMN 200 uM
  apparent KD of MS2 coat protein: 21.1 nM
[1]
  apparent KD of MS2 coat protein: 14.2 nM
Input ligand: none
  apparent KD of MS2 coat protein: 21.4 nM

## CUGCUGGAGCUUUGCUUUGGUCGUACAUGAGGAUCACCCAUGUAGGAUAUGGUAAAAUUUGCUUGCUAGAAGGAUAGAGUGGUC [salish99_ExNG3_r04_612] (Eterna round: R96, puzzle: Exclusion NG 3)
Input ligand: FMN 200 uM
  apparent KD of MS2 coat protein: 88.1 nM
[1]
  apparent KD of MS2 coat protein: 34.3 nM
Input ligand: none
  apparent KD of MS2 coat protein: 42.4 nM

## CUGCUUUUGGUGAGGAUAUGCGGUAGCUGGGUACCGCAGAAGGCACAUGAGGAUCACCCAUGUGAUCUGAAAGC [Eternabot (L1) Solution 5] (Eterna round: R97, puzzle: Brourd's mod of Exclusion 4)
Input ligand: FMN 200 uM
  apparent KD of MS2 coat protein: 687 nM
Input ligand: none
  apparent KD of MS2 coat protein: 61.2 nM

## CUGGUCCGAGGAUAUAUGAUGUGAAACAUGAGGAUCACCCAUGUAAUAUUAUGGAAGAAAAUAGAAGGCGGACUAG [Mat - Exclusion 5 - JL mod - D38] (puzzle: Exclusion 5)
[3]
  apparent KD of MS2 coat protein: 37.2 nM
[2]
  apparent KD of MS2 coat protein: 64.3 nM
[4]
  apparent KD of MS2 coat protein: 71.5 nM

## CUGGUCCGAGGAUAUAUUAAGUGAUACAUGAGGAUCACCCAUGUAAUUUAAUGGAAGUAAAUAGAAGGCGGACUAG [Mat - Exclusion 5 - JL mod - D50] (puzzle: Exclusion 5)
[3]
  apparent KD of MS2 coat protein: 79.8 nM
[2]
  apparent KD of MS2 coat protein: 53 nM
[4]
  apparent KD of MS2 coat protein: 80.5 nM

## CUGGUCCGAGGAUAUAUUAUGUGAAACAUGAGGAUCACCCAUGUAAUAUGAUGGAUGUAAAUAGAAGGCGGGCUAG [Mat - Exclusion 5 - JL mod - D26] (puzzle: Exclusion 5)
[3]
  apparent KD of MS2 coat protein: 30.8 nM
[2]
  apparent KD of MS2 coat protein: 23.2 nM
[4]
  apparent KD of MS2 coat protein: 24.3 nM

## CUGUAACGAGCGUGAGCCGACAUGAGGAUCACCCAUGUGCUCGUCUUAUAACGUACUGUCACGUUAGUGAUAGUGCG [Sensor v3, turn-off variant 1 (MOD of Eli's v1-13 v.2)] (puzzle: Sensor v3, turn-off variant 1)
[3]
  apparent KD of MS2 coat protein: 45.9 nM
[2]
  apparent KD of MS2 coat protein: 74.7 nM
[4]
  apparent KD of MS2 coat protein: 37.3 nM

## CUGUACUGAGGAUAUACAUGAGGAUCACCCAUGUGAUUUGGUGCACGCGUACGUGUACGUAGAAGGCAGUACAG [Mat - Exclusion 3 - Eli Mod - D39] (Eterna round: R97, puzzle: Exclusion 3)
Input ligand: FMN 200 uM
  apparent KD of MS2 coat protein: 317 nM
Input ligand: none
  apparent KD of MS2 coat protein: 25.5 nM

## CUUAAUUGUCACAUGGGUGACAUGAGGAUCACCCAUGUCACAAGCUUUUUGUUCGUCUUAUAAUUAACCCAUGUGAC [Stov1/12-B3] (Eterna round: R97, puzzle: Sensor, turn-off variant 1)
Input ligand: FMN 200 uM
  apparent KD of MS2 coat protein: 13.8 nM
Input ligand: none
  apparent KD of MS2 coat protein: 13.7 nM

## CUUAAUUGUGACAUGGGUGACAUGAGGAUCACCCAUGUCACAAGCUUUUUGCUCGUCUUAUAAUUAACCCAUGUCAC [Stov1/13-A3] (Eterna round: R97, puzzle: Sensor, turn-off variant 1)
Input ligand: FMN 200 uM
  apparent KD of MS2 coat protein: 30 nM
Input ligand: none
  apparent KD of MS2 coat protein: 33.4 nM
